Where a chain is given by its changes, count along the chain named. Where “and” joins values, the source holds several entries; their conditions need not be identical. Equal entries are not always repeated. Where two headings read alike, the source gives them in different places.
Legend:
CD27-mFc (Kangdai) [1] = biological target: T1, CD27-mFc (Kangdai) (human, UniProt P26842 21-192, limits assumed); assay: ELISA on coated CD27-mFc
T1 construct: Bought reagent; also called antigen CD27-mFc; solid-phase human CD27; not shown: mouse Fc (mFc)
T1 sequence (looked up): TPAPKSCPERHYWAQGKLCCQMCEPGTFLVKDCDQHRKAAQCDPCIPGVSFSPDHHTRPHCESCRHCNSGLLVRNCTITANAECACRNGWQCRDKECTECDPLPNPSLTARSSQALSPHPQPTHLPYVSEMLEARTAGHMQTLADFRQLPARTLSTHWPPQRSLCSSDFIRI

[2] = biological target: T2, human CD27 (transmembrane protein) on the cell membrane (human, UniProt P26842 20-260); assay: flow cytometry on CHO cells expressing human CD27
T2 construct: whole, on cells; One molecule is used for CD27 on CHO-CD27 cells, on human PBMC T and B cells and on Jurkat reporter cells; also called CHO-CD27
T2 sequence (looked up): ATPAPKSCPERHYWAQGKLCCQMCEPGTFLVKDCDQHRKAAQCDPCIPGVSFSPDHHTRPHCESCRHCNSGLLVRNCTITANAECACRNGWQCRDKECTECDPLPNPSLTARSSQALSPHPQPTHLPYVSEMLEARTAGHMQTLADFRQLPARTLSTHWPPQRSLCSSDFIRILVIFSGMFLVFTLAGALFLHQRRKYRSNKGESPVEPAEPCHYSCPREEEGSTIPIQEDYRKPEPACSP

CD27-mFc (Kangdai) [3] = biological target: T1, CD27-mFc (Kangdai); assay: competition ELISA: CD70 coated, CD27-mFc plus antibody dilutions; competitor CD70
[4] = biological target: T3, antigen CD27 (soluble, as used in the BLI and SPR experiments) (UniProt P26842 21-192, limits assumed); assay: SPR, Biacore T200, CM5 chip
T3 sequence (looked up): T1 sequence (looked up)

CD27-mFc (Kangdai) [5] = biological target: T1, CD27-mFc (Kangdai); assay: ELISA on coated CD27-mFc; remark: listed apart in the source
CD27-mFc (Kangdai) [6] = biological target: T1, CD27-mFc (Kangdai); assay: competition ELISA: CD70 coated, CD27-mFc plus antibody dilutions; competitor CD70; remark: listed apart in the source
[7] = biological target: T4, human CD64 on CHO-K cells (CHO-CD64) (human, UniProt P12314 16-374); assay: flow cytometry on CHO-CD64 cells, FITC anti-human Fc detection (Example 16)
T4 construct: whole, on cells; also called membrane CD64
T4 sequence (P12314 16-374): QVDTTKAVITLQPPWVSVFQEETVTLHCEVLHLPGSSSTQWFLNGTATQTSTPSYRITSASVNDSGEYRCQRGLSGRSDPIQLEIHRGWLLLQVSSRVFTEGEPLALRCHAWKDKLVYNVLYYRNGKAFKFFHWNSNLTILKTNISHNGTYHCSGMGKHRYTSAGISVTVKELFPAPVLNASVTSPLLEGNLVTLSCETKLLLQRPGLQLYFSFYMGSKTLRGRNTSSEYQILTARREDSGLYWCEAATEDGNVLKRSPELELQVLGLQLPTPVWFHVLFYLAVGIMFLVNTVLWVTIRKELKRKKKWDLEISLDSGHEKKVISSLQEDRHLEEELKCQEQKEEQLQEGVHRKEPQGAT

[8] = biological target: T5, human CD32a on Jurkat cells (Jurkat-CD32a) (human, UniProt P12318 34-317); assay: flow cytometry on Jurkat-CD32a cells, FITC anti-human Fc detection (Example 16)
T5 construct: whole, on cells; also called membrane CD32a
T5 sequence (looked up): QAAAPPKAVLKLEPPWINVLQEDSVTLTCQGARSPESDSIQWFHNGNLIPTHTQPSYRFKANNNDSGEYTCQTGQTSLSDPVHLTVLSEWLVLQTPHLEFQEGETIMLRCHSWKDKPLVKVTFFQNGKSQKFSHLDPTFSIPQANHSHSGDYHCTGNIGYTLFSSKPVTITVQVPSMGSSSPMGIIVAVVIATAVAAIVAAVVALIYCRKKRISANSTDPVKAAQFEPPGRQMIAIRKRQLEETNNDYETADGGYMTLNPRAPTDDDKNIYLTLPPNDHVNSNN

CD27-mFc (Kangdai) [9] = biological target: T1, CD27-mFc (Kangdai); assay: competition ELISA: coated CD70 (1 ug/mL), CD27-mFc plus antibody dilution, HRP anti-mouse Fc detection, absorption at 450/655 nm (Example 15.3); blocked ligand CD70
CD27-mFc (Kangdai) [10] = biological target: T1, CD27-mFc (Kangdai); assay: ELISA on coated CD27-mFc (1 ug/mL), AP anti-human Fc detection, absorption at 405/490 nm (Example 15.2)
[11] = biological target: T3, antigen CD27 (soluble, as used in the …); assay: BLI, antibody captured on AHC probe, CD27 in solution
CD27-mFc (Kangdai) [12] = biological target: T1, CD27-mFc (Kangdai); assay: ELISA on coated CD27-mFc; remark: listed apart in the source
[13] = biological target: T2, human CD27 (transmembrane protein) on …; assay: flow cytometry on CHO cells expressing human CD27; remark: listed apart in the source
mouse CD27 = biological target: T6, mouse CD27 (mouse, UniProt P41272 24-182, limits assumed); assay: hybridoma screening; format not described
T6 sequence (looked up): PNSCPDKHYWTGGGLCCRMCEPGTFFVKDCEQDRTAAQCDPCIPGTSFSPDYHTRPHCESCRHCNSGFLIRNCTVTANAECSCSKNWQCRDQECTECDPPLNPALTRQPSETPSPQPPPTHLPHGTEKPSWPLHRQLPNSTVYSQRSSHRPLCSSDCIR

CD27-mFc (Kangdai) [14] = biological target: T1, CD27-mFc (Kangdai); assay: competition ELISA: CD70 coated, CD27-mFc 4.3 µg/mL plus antibody dilutions; competitor CD70

B1: 13B3-huH2L3 (P33430) humanized CD27 monoclonal antibody (antibody, human IgG1)
heavy: not shown
VL: DIVLTQSPATLSVSPGERVTLSCRASQSVSNSLHWYQQKPGQAPRLLIMYTSQSISGIPARFSGSGSGTDFTLTISSVEPEDFAVYYCQQSNSWPLTFGGGTKLELK
notes: also called huVH2 + huVL3
Question: How did the EC50 (CD27-mFc (Kangdai) [1]) turn out when B1 was run?
Answer: 0.0418 µg/mL and 0.28 nM

Question: And the EC50 [2]?
Answer: 0.211 µg/mL and 1.41 nM

Question: What about the IC50 (CD27-mFc (Kangdai) [3]) of the same binder?
Answer: 1.95 µg/mL and 13.1 nM

Question: What about the Kd [4] of the same binder?
Answer: 0.391 nM

Question: What about the koff [4] of the same binder?
Answer: 0.000684 s⁻¹

Question: And the kon [4]?
Answer: 1.75e+06 M⁻¹ s⁻¹

B2: 13B3-huH3L4 (P33434) humanized CD27 monoclonal antibody (antibody, V domains shown)
VH: QVQLVQSGAEVKKPGASVKVSCKTSGYAFSQSWMNWVRQAPGQGLEWIGRIYPGDGDTNYNGIFQGRVTLTADTSISTAYMELSRLRSDDTAVYYCASMIRTTYVMDHWGQGTTVTVSS
VL: B1 VL with D1E, V13L, V19A, V78L
notes: also called huVH3 + huVL4
Question: How did the EC50 (CD27-mFc (Kangdai) [1]) turn out when B2 was run?
Answer: 0.0361 µg/mL and 0.242 nM

Question: And the EC50 [2]?
Answer: 0.242 µg/mL and 1.62 nM

Question: What about the IC50 (CD27-mFc (Kangdai) [3]) of the same binder?
Answer: 1.75 µg/mL and 11.7 nM

B3: 13B3-huH2L4 (P33433) humanized CD27 monoclonal antibody (antibody, human IgG1)
heavy: not shown
VL: B1 VL with D1E, V13L, V19A, V78L
notes: also called huVH2 + huVL4; parent antibody (wild-type)
Question: Which EC50 (CD27-mFc (Kangdai) [5]) does the source give for B3 here?
Answer: 0.029 µg/mL

Question: And the EC50 (CD27-mFc (Kangdai) [1])?
Answer: 0.0409 µg/mL and 0.274 nM

Question: And the IC50 (CD27-mFc (Kangdai) [6])?
Answer: 1.31 µg/mL

Question: What about the “EC50 (read off the curve)” value [7] of the same binder?
Answer: ~0.7 µg/mL

Question: And the EC50 [2]?
Answer: 0.224 µg/mL and 1.5 nM

Question: What about the IC50 (CD27-mFc (Kangdai) [3]) of the same binder?
Answer: 1.91 µg/mL and 12.8 nM

B4: 13B3-huH2L4 (LALA) variant antibody (antibody, human IgG1, L234A L235A)
heavy: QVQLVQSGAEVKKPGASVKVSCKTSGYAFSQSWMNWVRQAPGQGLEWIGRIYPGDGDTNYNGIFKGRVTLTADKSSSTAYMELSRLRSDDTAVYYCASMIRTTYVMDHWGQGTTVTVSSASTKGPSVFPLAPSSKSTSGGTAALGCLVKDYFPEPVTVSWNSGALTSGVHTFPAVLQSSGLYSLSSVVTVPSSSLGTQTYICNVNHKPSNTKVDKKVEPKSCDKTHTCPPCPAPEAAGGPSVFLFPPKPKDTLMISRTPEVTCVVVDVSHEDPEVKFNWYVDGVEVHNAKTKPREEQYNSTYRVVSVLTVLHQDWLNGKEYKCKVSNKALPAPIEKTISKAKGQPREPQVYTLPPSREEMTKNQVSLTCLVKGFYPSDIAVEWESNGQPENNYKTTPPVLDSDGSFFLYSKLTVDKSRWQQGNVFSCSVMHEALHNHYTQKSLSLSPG
VL: B1 VL with D1E, V13L, V19A, V78L
notes: The light chain is that of 13B3-huH2L4 (huVL4); also called mutant antibody
Question: How did the EC50 (CD27-mFc (Kangdai) [5]) turn out when B4 was run?
Answer: 0.029 µg/mL

Question: Does B4 bind [7]?
Answer: no binding (tested: 10 µg/mL)

Question: Does B4 bind [8]?
Answer: no binding (tested: 10 µg/mL)

Question: And the IC50 (CD27-mFc (Kangdai) [9])?
Answer: 1.12 µg/mL

B5: 13B3-huH4L3 (P33432) humanized CD27 monoclonal antibody (antibody, V domains shown)
VH: B2 VH with I48M, N61A, G62Q, I63K, L70M
VL: B1 VL
Question: With B5 as the binder, how does the IC50 (CD27-mFc (Kangdai) [3]) read?
Answer: 1.91 µg/mL and 12.8 nM

B6: 13B3-huH2L3 (LALA) variant antibody (antibody, human IgG1, L234A L235A)
heavy: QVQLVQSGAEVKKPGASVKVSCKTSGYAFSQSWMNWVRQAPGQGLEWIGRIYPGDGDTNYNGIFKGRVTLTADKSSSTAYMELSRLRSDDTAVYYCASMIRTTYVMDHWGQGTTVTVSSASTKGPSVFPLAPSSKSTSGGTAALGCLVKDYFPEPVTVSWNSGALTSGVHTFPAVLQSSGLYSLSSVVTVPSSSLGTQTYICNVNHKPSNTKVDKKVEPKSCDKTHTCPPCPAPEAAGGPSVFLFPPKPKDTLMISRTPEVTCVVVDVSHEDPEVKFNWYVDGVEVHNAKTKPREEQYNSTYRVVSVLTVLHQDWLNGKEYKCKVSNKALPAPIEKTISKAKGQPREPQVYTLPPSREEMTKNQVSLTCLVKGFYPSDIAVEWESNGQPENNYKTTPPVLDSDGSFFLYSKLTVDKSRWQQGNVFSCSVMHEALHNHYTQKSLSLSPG
VL: B1 VL
notes: The light chain is that of 13B3-huH2L3 (huVL3)
Question: How did the EC50 (CD27-mFc (Kangdai) [10]) turn out when B6 was run?
Answer: 0.037 µg/mL

Question: What about the IC50 (CD27-mFc (Kangdai) [6]) of the same binder?
Answer: 1.09 µg/mL

B7: 13B3-huH4L1 (P33425) humanized CD27 monoclonal antibody (antibody, V domains shown)
VH: B2 VH with I48M, N61A, G62Q, I63K, L70M
VL: EIVLTQSPDFLSVTPKEKVTLTCRASQSVSNSLHWYQQKPDQSPKLLIMYTSQSISGIPSRFSGSGSGTDFTLTINSVEAEDAATYYCQQSNSWPLTFGGGTKLELK
notes: also called huVH4 + huVL1
Question: Which results are given for B7?
Answer: EC50 (CD27-mFc (Kangdai) [1]): 0.0371 µg/mL and 0.249 nM; EC50 [2]: 0.19 µg/mL and 1.27 nM; Kd [4]: 0.699 nM; koff [4]: 0.00135 s⁻¹; kon [4]: 1.93e+06 M⁻¹ s⁻¹

B8: 13B3-huH2L2 (P33426) humanized CD27 monoclonal antibody (antibody, V domains shown)
VH: B2 VH with Q65K, T74K, I76S
VL: IVLTQSPDFQSVTPKEKVTITCRASQSVSNSLHWYQQKPDQSPKLLIMYTSQSISGVPSRFSGSGSGTDFTLTINSLEAEDAATYYCQQSNSWPLTFGGGTKLELK
notes: also called huVH2 + huVL2
Question: With B8 as the binder, how does the EC50 (CD27-mFc (Kangdai) [1]) read?
Answer: 0.0486 µg/mL and 0.325 nM

Question: And the EC50 [2]?
Answer: 0.221 µg/mL and 1.48 nM

Question: And the IC50 (CD27-mFc (Kangdai) [3])?
Answer: 1.92 µg/mL and 12.8 nM

Question: What about the Kd [4] of the same binder?
Answer: 0.643 nM

Question: What about the koff [4] of the same binder?
Answer: 0.00106 s⁻¹

Question: And the kon [4]?
Answer: 1.65e+06 M⁻¹ s⁻¹

B9: 17H8-hFc human-mouse chimeric CD27 monoclonal antibody (antibody, V domains shown)
VH: EVKLEESGGGLVQPGGSMKLSCVASGFTFSNYWMNWVRQSPEKGLEWVAEIRLKSNNYATYYAESVKGRFTISRDDSKSSVYLQMNSLRGEDTGIYYCTLYDSSYYYAMDYWGQGTSVTVSS
VL: DVVLTQTPLSLPVNIGDQASISCKSTQSLLHSDGFTYLDWYLQKPGQSPQLLIYLVSNRFLGVPDRFSGSGSRTDFTLKISRVEAEDLGVYYCFQSNYLPLTFGGGTKLEI
notes: Mouse 17H8 variable regions on human constant regions
Question: For B9, which Kd [11] is on record?
Answer: 1.3 nM

Question: What about the koff [11] of the same binder?
Answer: 0.00016 s⁻¹

Question: And the kon [11]?
Answer: 123000 M⁻¹ s⁻¹

Question: And the EC50 (CD27-mFc (Kangdai) [12])?
Answer: 0.0754 µg/mL

Question: What about the EC50 [13] of the same binder?
Answer: ~90.6 µg/mL

B10: 17H8 anti-human CD27 mouse monoclonal antibody (hybridoma clone) (antibody, V domains shown)
VH: B9 VH
VL: B9 VL
notes: also called 17H8-1-1
Question: Does B10 bind (mouse CD27)?
Answer: no binding

B11: 13B3-hFc human-mouse chimeric CD27 monoclonal antibody (antibody, V domains shown)
VH: QVQLQQSGPEQVKPGASVKISCKTSGYAFSQSWMNWVKQRPGQGLEWIGRIYPGDGDTNYNGIFKGKATLTADKSSSTAYMQLSSLTSLDSAVYFCASMIRTTYVMDHWGQGTSVTVTS
VL: DIVLTQSPATLSVTPGDSVSLSCRASQSVSNSLHWYQQKSHESPRLLIMYTSQSISGIPSRFSGSGSGTDFTLSINSVETEDFGMYFCQQSNSWPLTFGAGTKLELK
notes: Mouse 13B3 variable regions on human constant regions (expression vectors P378 and P379, made in 293F cells)
Question: What does the source list for B11?
Answer: Kd [11]: 1.23 nM; koff [11]: 0.000222 s⁻¹; kon [11]: 181000 M⁻¹ s⁻¹; EC50 (CD27-mFc (Kangdai) [1]): 0.0503 µg/mL and 0.337 nM; IC50 (CD27-mFc (Kangdai) [14]): 1.47 µg/mL; EC50 (CD27-mFc (Kangdai) [12]): 0.0344 µg/mL; IC50 (CD27-mFc (Kangdai) [3]): 2.06 µg/mL and 13.8 nM; EC50 [13]: 2.49 µg/mL; Kd [4]: 0.781 nM; koff [4]: 0.000954 s⁻¹; kon [4]: 1.22e+06 M⁻¹ s⁻¹

B12: 13B3 anti-human CD27 mouse monoclonal antibody (hybridoma clone) (antibody, V domains shown)
VH: B11 VH
VL: B11 VL
notes: also called 16B1-1-1
Question: Does B12 bind (mouse CD27)?
Answer: no binding

B13: 16B1 anti-human CD27 mouse monoclonal antibody (hybridoma clone) (antibody, V domains shown)
VH: B11 VH
VL: B11 VL
notes: Tested as hybridoma supernatant; also called 16B1-1-1
Question: Does B13 bind (mouse CD27)?
Answer: no binding
